Test results taken from the supplement of paper PMC10724198.
± gives the standard deviation of the averaged measurements.

Key:
Saccharomyces cerevisiae [1] = test: protein stability index of tFT-peptide fusion (C-terminal peptide) (PSI (0-1 scale)); higher = more stable (slower turnover)
Procedure: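 MPS profiling in S. cerevisiae of the tFT-X12 degron library: putative degron peptides plus stable controls, 12 aa, fused to the C-terminus of a sfGFP-mCherry timer. Cells are FACS-sorted into 8 mCherry/sfGFP bins and deep-sequenced. PSI runs from 0 (unstable) to 1 (stable). Backgrounds are wild type, das1Δ and doa10Δ at 30 °C, and wild type, das1Δ, cdc34-1 and cdc53-1 at 37 °C; 2-3 technical replicates each.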

Saccharomyces cerevisiae [2] = test: as above; conditions: genetic background: wild type; temperature: 30 C
[3] = genetic background: cdc34-1, temperature: 37 C
[4] = genetic background: cdc53-1, temperature: 37 C
[5] = genetic background: das1 deletion, temperature: 30 C
[6] = genetic background: das1 deletion, temperature: 37 C
[7] = genetic background: doa10 deletion, temperature: 30 C
[8] = genetic background: wild type, temperature: 30 C
[9] = genetic background: wild type, temperature: 37 C
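Note: PSI is a weighted mean of sequencing reads over stability bins, variants kept only with over 10 reads, mCherry proximal and sfGFP distal, peptide attached via GGGS linker.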

Sequence | protein stability index (Saccharomyces cerevisiae [1]; [3]) | protein stability index (Saccharomyces cerevisiae [1]; [4]) | protein stability index (Saccharomyces cerevisiae [1]; [5]) | protein stability index (Saccharomyces cerevisiae [1]; [6]) | protein stability index (Saccharomyces cerevisiae [1]; [7]) | protein stability index (Saccharomyces cerevisiae [1]; [8]) | protein stability index (Saccharomyces cerevisiae [1]; [9]) | protein stability index (Saccharomyces cerevisiae [2])
VFLYVYAVWFLV | 0.156 ± 0.027 | 0.228 ± 0.0084 | 0.198 ± 0.042 | 0.321 ± 0.0075 | 0.1102 ± 0.00096 | 0.119 ± 0.053 | 0.118 ± 0.023 | 0.164 ± 0.025
VFSFLYHVVPVL | 0.4374 ± 0.0012 | 0.49 ± 0.013 | 0.36 ± 0.028 | 0.505 ± 0.01 | 0.324 ± 0.018 | 0.348 ± 0.024 | 0.4554 ± 0.0018 | 0.441 ± 0.01
VFVMRDGFLRKV | 0.63323 ± 0.00049 | 0.7055 ± 0.004 | 0.636 ± 0.022 | 0.748 ± 0.025 | 0.301 ± 0.013 | 0.341 ± 0.015 | 0.4507 ± 0.0016 | 0.374 ± 0.044
VFWISRLYLASY | 0.474 ± 0.027 | 0.524 ± 0.023 | 0.442 ± 0.037 | 0.588 ± 0.012 | 0.42 ± 0.017 | 0.362 ± 0.023 | 0.52 ± 0.02 | 0.456 ± 0.02
VGDFFVLVGFVA | 0.493 ± 0.0097 | 0.538 ± 0.011 | 0.386 ± 0.028 | 0.547 ± 0.0057 | 0.336 ± 0.0095 | 0.382 ± 0.022 | 0.5219 ± 0.0043 | 0.492 ± 0.053
VGDIRSFALWYA | 0.699 ± 0.039 | 0.765 ± 0.014 | 0.661 ± 0.015 | 0.74 ± 0.0047 | 0.656 ± 0.038 | 0.646 ± 0.011 | 0.707 ± 0.011 | 0.745 ± 0.041
VGGGGRFWVCVG | 0.657 ± 0.03 | 0.73937 ± 0.00061 | 0.629 ± 0.0064 | 0.737 ± 0.011 | 0.2122 ± 0.0019 | 0.237 ± 0.025 | 0.552 ± 0.031 | 0.406 ± 0.04
VGVSCLVFFGVV | 0.644 ± 0.023 | 0.653 ± 0.0091 | 0.511 ± 0.017 | 0.6636 ± 0.0025 | 0.484 ± 0.026 | 0.509 ± 0.021 | 0.633 ± 0.0085 | 0.549 ± 0.11
VIAYSLLSWGDF | 0.308 ± 0.0034 | 0.341 ± 0.019 | 0.378 ± 0.04 | 0.319 ± 0.023 | 0.403 ± 0.029 | 0.371 ± 0.021 | 0.305 ± 0.016 | 0.371 ± 0.028
VLDFSVPRHVLH | 0.696 ± 0.014 | 0.7655 ± 0.0041 | 0.66 ± 0.0056 | 0.7364 ± 0.0016 | 0.661 ± 0.013 | 0.678 ± 0.035 | 0.7472 ± 0.0033 | 0.707 ± 0.024
VLFFCLVIYVGV | 0.187 ± 0.0071 | 0.23702 ± 9.6e-05 | 0.183 ± 0.015 | 0.29 ± 0.035 | 0.141 ± 0.015 | 0.187 ± 0.027 | 0.26 ± 0.0013 | 0.217 ± 0.018
VLILFFLVVFYV | 0.217 ± 0.015 | 0.294 ± 0.0088 | 0.267 ± 0.033 | 0.347 ± 0.018 | 0.2543 ± 0.0024 | 0.237 ± 0.021 | 0.3358 ± 0.0033 | 0.262 ± 0.037
VLLCASPMLAVV | 0.343 ± 0.028 | 0.356 ± 0.022 | 0.289 ± 0.024 | 0.423 ± 0.0087 | 0.249 ± 0.0027 | 0.297 ± 0.011 | 0.39 ± 0.0039 | 0.393 ± 0.03
VLLCGCVWLWWG | 0.437 ± 0.034 | 0.507 ± 0.006 | 0.371 ± 0.038 | 0.5248 ± 0.004 | 0.349 ± 0.013 | 0.364 ± 0.014 | 0.5013 ± 0.0039 | 0.4494 ± 0.0012
VLLFGLAFFFSF | 0.422 ± 0.058 | 0.4953 ± 0.0026 | 0.367 ± 0.053 | 0.537 ± 0.036 | 0.222 ± 0.013 | 0.241 ± 0.029 | 0.408 ± 0.033 | 0.371 ± 0.055
VLLGYPRILSLF | 0.7 ± 0.059 | 0.8278 ± 0.002 | 0.681 ± 0.0075 | 0.8122 ± 0.0047 | 0.1646 ± 0.0013 | 0.167 ± 0.021 | 0.25 ± 0.0096 | 0.35 ± 0.061
VLLRSRLLRRLS | 0.588 ± 0.055 | 0.6547 ± 0.0063 | 0.67 ± 0.048 | 0.72 ± 0.033 | 0.137 ± 0.013 | 0.137 ± 0.038 | 0.235 ± 0.02 | 0.211 ± 0.024
VLRCIWLCFLSV | 0.487 ± 0.025 | 0.5129 ± 0.0034 | 0.439 ± 0.034 | 0.607 ± 0.032 | 0.448 ± 0.039 | 0.4 ± 0.013 | 0.561 ± 0.036 | 0.465 ± 0.043
VLRLVLFVLISV | 0.311 ± 0.065 | 0.348 ± 0.019 | 0.277 ± 0.03 | 0.387 ± 0.016 | 0.2853 ± 0.0015 | 0.268 ± 0.015 | 0.352 ± 0.016 | 0.337 ± 0.0069
VLSCVWFVVVGV | 0.247 ± 0.013 | 0.316 ± 0.034 | 0.245 ± 0.028 | 0.441 ± 0.019 | 0.202 ± 0.0034 | 0.22 ± 0.033 | 0.4017 ± 0.0016 | 0.3596 ± 0.00083

Sequence | protein stability index (Saccharomyces cerevisiae [1]; [3]) | protein stability index (Saccharomyces cerevisiae [1]; [4]) | protein stability index (Saccharomyces cerevisiae [1]; [5]) | protein stability index (Saccharomyces cerevisiae [1]; [6]) | protein stability index (Saccharomyces cerevisiae [1]; [7]) | protein stability index (Saccharomyces cerevisiae [1]; [8]) | protein stability index (Saccharomyces cerevisiae [1]; [9]) | protein stability index (Saccharomyces cerevisiae [2])
VLYWTGTLFVSL | 0.208 ± 0.00082 | 0.355 ± 0.0038 | 0.218 ± 0.017 | 0.426 ± 0.0064 | 0.195 ± 0.019 | 0.233 ± 0.028 | 0.424 ± 0.038 | 0.307 ± 0.035
VPIIVVVYVFVT | 0.13 ± 0.022 | 0.247 ± 0.11 | 0.157 ± 0.03 | 0.306 ± 0.024 | 0.105 ± 0.025 | 0.134 ± 0.038 | 0.258 ± 0.0081 | 0.203 ± 0.085
VRFLLSLCCALL | 0.588 ± 0.03 | 0.671 ± 0.018 | 0.548 ± 0.033 | 0.624 ± 0.042 | 0.5436 ± 0.0034 | 0.518 ± 0.021 | 0.596 ± 0.032 | 0.4914 ± 0.0025
VRLYLRSCVVES | 0.347 ± 0.061 | 0.368 ± 0.0011 | 0.228 ± 0.029 | 0.437 ± 0.0094 | 0.181 ± 0.0071 | 0.217 ± 0.026 | 0.4148 ± 0.0031 | 0.32 ± 0.021
VRMVIFSSVYLT | 0.462 ± 0.002 | 0.509 ± 0.03 | 0.362 ± 0.033 | 0.533 ± 0.0036 | 0.256 ± 0.008 | 0.26 ± 0.027 | 0.448 ± 0.02 | 0.309 ± 0.0098
VRWLVFFLFLFG | 0.501 ± 0.011 | 0.481 ± 0.013 | 0.406 ± 0.023 | 0.555 ± 0.0072 | 0.322 ± 0.0038 | 0.327 ± 0.022 | 0.497 ± 0.016 | 0.466 ± 0.074
VSCLDLCFVISR | 0.647 ± 0.041 | 0.681 ± 0.022 | 0.503 ± 0.034 | 0.66874 ± 0.00016 | 0.528 ± 0.029 | 0.514 ± 0.025 | 0.626 ± 0.018 | 0.437 ± 0.013
VSCYYVFLIPFW | 0.463 ± 0.011 | 0.6 ± 0.036 | 0.414 ± 0.038 | 0.57839 ± 0.00033 | 0.408 ± 0.018 | 0.409 ± 0.017 | 0.56 ± 0.0097 | 0.484 ± 0.02
VSFLLYNFLSVF | 0.286 ± 0.0083 | 0.418 ± 0.0077 | 0.346 ± 0.028 | 0.4643 ± 0.0021 | 0.053 ± 0.019 | 0.0707 ± 0.012 | 0.0652 ± 0.015 | 0.101 ± 0.0017
VSFLVSIFVSGV | 0.189 ± 0.025 | 0.246 ± 0.036 | 0.216 ± 0.029 | 0.372 ± 0.0078 | 0.2 ± 0.025 | 0.194 ± 0.048 | 0.332 ± 0.015 | 0.303 ± 0.039
VSLLSLGYVFVY | 0.286 ± 0.05 | 0.27 ± 0.03 | 0.212 ± 0.038 | 0.3467 ± 0.00073 | 0.184 ± 0.0098 | 0.216 ± 0.033 | 0.319 ± 0.0037 | 0.307 ± 0.019
VSLLVFVVSSRV | 0.345 ± 0.034 | 0.418 ± 0.0047 | 0.262 ± 0.031 | 0.476 ± 0.016 | 0.223 ± 0.0068 | 0.255 ± 0.022 | 0.444 ± 0.013 | 0.3816 ± 0.0022
VSPPPLSPPLSR | 0.677 ± 0.014 | 0.7238 ± 0.0031 | 0.6712 ± 0.0055 | 0.709 ± 0.012 | 0.686 ± 0.0078 | 0.673 ± 0.0092 | 0.688 ± 0.014 | 0.701 ± 0.0022
VTMTPSLCFSYS | 0.688 ± 0.017 | 0.684 ± 0.023 | 0.388 ± 0.029 | 0.668 ± 0.013 | 0.364 ± 0.0098 | 0.396 ± 0.01 | 0.632 ± 0.016 | 0.464 ± 0.018
VTRLLLSRIDCY | 0.437 ± 0.018 | 0.445 ± 0.0057 | 0.376 ± 0.028 | 0.501 ± 0.016 | 0.346 ± 0.011 | 0.367 ± 0.025 | 0.468 ± 0.022 | 0.445 ± 0.11
VVFLFVEAVVGV | 0.0536 ± 0.018 | 0.0519 ± 0.021 | 0.0387 ± 0.014 | 0.0974 ± 0.015 | 0.0288 ± 0.0048 | 0.0238 ± 0.0054 | 0.0933 ± 0.022 | 0.0707 ± 0.0075
VVFVVGAPPVLC | 0.476 ± 0.018 | 0.481 ± 0.036 | 0.359 ± 0.024 | 0.532 ± 0.013 | 0.323 ± 0.016 | 0.365 ± 0.0082 | 0.5068 ± 0.0019 | 0.4834 ± 0.0027
VVGVVVCWGCGW | 0.493 ± 0.02 | 0.555 ± 0.057 | 0.393 ± 0.024 | 0.587 ± 0.0062 | 0.369 ± 0.021 | 0.397 ± 0.018 | 0.535 ± 0.0068 | 0.45 ± 0.023
VVPWLGYVSCFS | 0.452 ± 0.031 | 0.487 ± 0.027 | 0.357 ± 0.029 | 0.521 ± 0.0067 | 0.324 ± 0.0094 | 0.366 ± 0.032 | 0.5026 ± 0.0044 | 0.465 ± 0.041
